The RNAGym collection of RNA variant scans (doi:10.1073/pnas.2313332121)

B1: TPR t1 (parent)
chain: GACCAAUCUGCCCUCAGAGCUCGAGAACAUCUUCGGAUGCAGAGGAGGCAGGCUUCGGUGGCGCGAUAGCGCCAACGUCCUCAACCUCCAAUGCAUCCCACCACAUGAUGAUGCCUGAAGAGCCUUGGUUUUUUG

Variants of: B1
Assay: polymerase ribozyme fitness, log enrichment relative to wild type (log ratio); higher = more active; in vitro selection for triplet polymerase activity
How it was run: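 Each subunit of a heterodimeric triplet polymerase ribozyme was represented by a PCR-built, transcribed mutant library that underwent triplicate single-round in vitro selection with frozen incubation at −7 °C. Extended constructs were recovered by gel excision, streptavidin-bead capture and RT-PCR, and Illumina sequencing of input and output libraries kept genotypes with ≥10 input reads and ≥1 read per output. Fitness is the logarithm of genotype enrichment relative to wild-type enrichment, from inverse-variance-weighted replicate averages, with a logarithm base of 2.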

| Variant | polymerase ribozyme fitness (log ratio) |
| --- | --- |
| G44A C82G | -1.66 |
| C72G C124U | 1.15 |
| A41U G63U | -2.33 |
| C11G G35A A84U | -4.58 |
| C73A U78C C94U | -0.492 |
| U92G C97U G110U | -5.82 |
| G36C C70U | -1.72 |
| C3U G77A A121U | 2.03 |
| A5C C56G C98A A121C | -3.33 |
| U87G A91U U109A U125C | -5.71 |
| C22A C56G | -4.66 |
| A6U C11G G69U C76A U125G | -2.63 |
| G69U C76G U133A | -2.07 |
| C70U C102U | -2.39 |
| A16C U87A C123G G128C | -1.81 |
| A68G G71A C101U | -5.85 |
| C20U U32C U106A | -2.46 |
| C70A A90G | -1.9 |
| A5U A16C | -2.72 |
| U9G C20A C22U C86U | -4.49 |
| G10C A43U C62A C114U U116C U133G | -6.43 |

| Variant | polymerase ribozyme fitness (log ratio) |
| --- | --- |
| A6G C8G C12A C28A C56G U81C U112A | -4.51 |
| C12A G19A G60U | -2.57 |
| A18U C20U U87G | -2.42 |
| C53A A90U G117C | -4.59 |
| C86A C114U A119U | -3.57 |
| U59C G127U | -0.462 |
| G77U C94U | 0.0625 |
| C8G C15A G39A G52C U59A C89A G117A | -2.57 |
| C62G C115U G122U | -5.8 |
| G52A C72G G128C U130G | -1.87 |
| G127C U129C | -2.22 |
| C8G C11U G63U C124A | 1.09 |
| A41U G60U U78A A95G U126A | -4.53 |
| U38G G128C | -2.66 |
| G44C G63C A91G | -2.62 |
| C20G U116C | -3.78 |
| C3U A41C C70G U112C C124U | -3.32 |
| C94A U112A | 1.02 |
| G71A U106G | -2.73 |
| C8G A43U | -0.695 |
| G47C C72U C94U | -2.45 |

| Variant | polymerase ribozyme fitness (log ratio) |
| --- | --- |
| C12A G39U | -1.1 |
| U9A C13G G35A | -3.79 |
| G63U A105G | -3.13 |
| C13G C104U C123A U125G | 0.46 |
| U9G G10U U14A C97U | -0.883 |
| C20G G48A G60U U96A A105U G110U A118U | -6.72 |
| G71U C102G U112A G127U | -5.37 |
| G60C G107U | -4.16 |
| U21C C28A G57U C70A U78G G110U | -3.7 |
| G63C U81G | -4.28 |
| C40U C53U A75G C82U | -0.592 |
| U55C | -0.521 |
| C4A G60A | -0.949 |
| A121C U133A | -0.797 |
| G45C U55C A119U | -2.39 |
| U92A U109G | -5.94 |
| C49A C73U C88U C94U C123U U132G G135U | -1.74 |
| G39A C62G | -2.59 |
| A29G G48U G93C G110U C123U | -4.77 |
| C53A U92G A95U | -2.44 |
| C70G G93C | -4.94 |

| Variant | polymerase ribozyme fitness (log ratio) |
| --- | --- |
| U9G G10U C12G A111G | 0.61 |
| A50U U112A U125C | -0.475 |
| G45U A74G U132A | -2.04 |
| C11A A37U G63C U116G | -5.29 |
| C15A G61U A105C | -4.93 |
| C11U C15U G45U C64U U78A C80U C82U A111U | -8.07 |
| C89A U130G | -1.51 |
| A5U C40G G71U U87G | -3.8 |
| A5G A41C | -0.911 |
| C11U C89A U112G | -1.71 |
| C82G G128A | -2.22 |
| C13G G47U | -3.12 |
| G25C A29G C64A C79G A90C G117U A119G | -7.04 |
| C49A G113A | -0.955 |
| C28A A83U | -2.16 |
| C72A C89A | -0.502 |
| G39U A50U | -1.79 |
| A26C G60C | -6.06 |
| G39A A83U U106A C114U | -4.87 |
| G47U C80A G113A | -6.73 |
| G60U U78A C89G | -1.87 |
